From US11110182B2, “Multifunctional RNA nanoparticles and methods for treating cancer and therapeutic resistant cancer” (University of Cincinnati, priority 2016, dated 2021)

Assay: Biosafety during therapeutic treatment (body weight, organ H&E histopathology)
Type: in vivo, athymic nude mice
Description: FIG. 12A) During therapeutic treatment to orthotopic xenograft mouse models, the body weights of mice were recorded every three days. FIG. 12B) After therapeutic treatment, major organs were excised, fixed in 10% neutral formalin buffer, embedded in paraffin, sectioned and examined for histopathology by H&E staining. Scale bar: 100 μm.
Migration and metastasis assay. The 8-μm-pore-size polycarbonate membrane, which separates the two chambers of a 6.5-mm Transwell (Costar), was coated with or without 1:8 DMEM-diluted Matrigel (Corning). […] Cells at top side of membranes were removed completely, and cells at the bottom side were examined with an Olympus SZX12 microscope and counted. • Mammosphere culture and breast cancer stem cell analyses. […] After treatment with or without 1 μM 4-OHT for 7 days, mammosphere formation was recorded using an Axiovert S100 TV inverted microscope (Zeiss). […] After resuspension with 0.5 mL PBS buffer, CD44^+/CD24^−/low cell population was analyzed by flow cytometry. • Orthotopic xenograft breast tumor mouse model, in vivo imaging and anti-tumor therapy. […] The tumor volume was monitored every 3 days, and tumor size was calculated using the formula: volume=0.5×(width)^2×(length). […]

B1: pRNA-HER2apt-siMED1: 3-WJ pRNA nanoparticle bearing a HER2-targeting RNA aptamer and two different MED1 siRNAs; strands p1 SEQ ID NO: 3, p2 SEQ ID NO: 4 (nucleic acid)
chain 1: GGACAGUGAAAGUGAGUCAAAGGAUCAAUCAUGGCCAAAGAUGUUACUUUGAGAGCCUU
chain 2: GGCUCUCAAAGUAACAUCUAAGGCCAUGUGUAUGUGGGGGGAGGACGAUGCGGUCUGCUGUGCUUGAUAUGCCCCAGACGACUCGCCCCCCACAUACUUUGUUGAUCCAAUGACUCACUUUCACUGUCCUU
modifications: 2'-F modification; third strand may lack entry; pRNA-HER2apt-siMED1, p1; pRNA-HER2apt-siMED1, p2
H&E staining after therapeutic treatment
  histopathology of heart, liver, spleen, lung and kidney: no evidence of any apparent organ injury or disturbance
Entire treatment period, systemic administration
  mouse body weight: no significant reduction
